From US20260265390A1 (SHANDONG SIMCERE BIOPHARMACEUTICAL, published 2026)
Where “and” joins values, the source holds several entries; their conditions need not be identical. Equal entries are not always repeated.

B1: JNJ7564 (bispecific antibody targeting GPRC5D and CD3, Johnson & Johnson, WO 2019220368 A1) (bispecific antibody, human IgG4 S228P, kappa, lambda, F234A L235A)
heavy 1: not shown
light 1: DIQMTQSPSSLSASVGDRVTITCKASQNVATHVGWYQQKPGKAPKRLIYSASYRYSGVPSRFSGSGSGTEFTLTISNLQPEDFATYYCQQYNRYPYTFGQGTKLEIKRTVAAPSVFIFPPSDEQLKSGTASVVCLLNNFYPREAKVQWKVDNALQSGNSQESVTEQDSKDSTYSLSSTLTLSKADYEKHKVYACEVTHQGLSSPVTKSFNRGEC
heavy 2: EVQLVESGGGLVQPGGSLRLSCAASGFTFNTYAMNWVRQAPGKGLEWVARIRSKYNNYATYYAASVKGRFTISRDDSKNSLYLQMNSLKTEDTAVYYCARHGNFGNSYVSWFAYWGQGTLVTVSSASTKGPSVFPLAPCSRSTSESTAALGCLVKDYFPEPVTVSWNSGALTSGVHTFPAVLQSSGLYSLSSVVTVPSSSLGTKTYTCNVDHKPSNTKVDKRVESKYGPPCPPCPAPEAAGGPSVFLFPPKPKDTLMISRTPEVTCVVVDVSQEDPEVQFNWYVDGVEVHNAKTKPREEQFNSTYRVVSVLTVLHQDWLNGKEYKCKVSNKGLPSSIEKTISKAKGQPREPQVYTLPPSQEEMTKNQVSLTCLVKGFYPSDIAVEWESNGQPENNYKTTPPVLDSDGSFLLYSKLTVDKSRWQEGNVFSCSVMHEALHNHYTQKSLSLSLGK
light 2: QTVVTQEPSLTVSPGGTVTLTCRSSTGAVTTSNYANWVQQKPGQAPRGLIGGTNKRAPGTPARFSGSLLGGKAALTLSGVQPEDEAEYYCALWYSNLWVFGGGTKLTVLGQPKAAPSVTLFPPSSEELQANKATLVCLISDFYPGAVTVAWKADSSPVKAGVETTTPSKQSNNKYAASSYLSLTPEQWKSHRSYSCQVTHEGSTVEKTVAPTECS
notes: Positive control, made by reduction and reoxidation of the two monospecific antibodies
B2: REGN5459 (bispecific antibody targeting BCMA and CD3, Regeneron, WO 2020018820 A1) (bispecific antibody, human IgG4 S228P, kappa)
heavy 1: EVQLVESGGGLVQPGGSLRLSCAASGFTFSNFWMTWVRQAPGKGLEWVANMNQDGSEKYYVDSVKGRFTISRDNAKSSLYLQMNSLRAEDTAVYYCARDREYCISTSCYDDFDYWGQGTLVTVSSASTKGPSVFPLAPCSRSTSESTAALGCLVKDYFPEPVTVSWNSGALTSGVHTFPAVLQSSGLYSLSSVVTVPSSSLGTKTYTCNVDHKPSNTKVDKRVESKYGPPCPPCPAPPVAGPSVFLFPPKPKDTLMISRTPEVTCVVVDVSQEDPEVQFNWYVDGVEVHNAKTKPREEQFNSTYRVVSVLTVLHQDWLNGKEYKCKVSNKGLPSSIEKTISKAKGQPREPQVYTLPPSQEEMTKNQVSLTCLVKGFYPSDIAVEWESNGQPENNYKTTPPVLDSDGSFFLYSRLTVDKSRWQEGNVFSCSVMHEALHNHYTQKSLSLSLGK
heavy 2: EVQLVESGGGLVQPGRSLRLSCAASGFTFDDYSMHWVRQAPGKGLEWVSGISWNSGSIGYADSVKGRFTISRDNAKNSLYLQMNSLRAEDTALYYCAKYGSGYGKFYYYGMDVWGQGTTVTVSSASTKGPSVFPLAPCSRSTSESTAALGCLVKDYFPEPVTVSWNSGALTSGVHTFPAVLQSSGLYSLSSVVTVPSSSLGTKTYTCNVDHKPSNTKVDKRVESKYGPPCPPCPAPPVAGPSVFLFPPKPKDTLMISRTPEVTCVVVDVSQEDPEVQFNWYVDGVEVHNAKTKPREEQFNSTYRVVSVLTVLHQDWLNGKEYKCKVSNKGLPSSIEKTISKAKGQPREPQVYTLPPSQEEMTKNQVSLTCLVKGFYPSDIAVEWESNGQPENNYKTTPPVLDSDGSFFLYSRLTVDKSRWQEGNVFSCSVMHEALHNRFTQKSLSLSLGK
light: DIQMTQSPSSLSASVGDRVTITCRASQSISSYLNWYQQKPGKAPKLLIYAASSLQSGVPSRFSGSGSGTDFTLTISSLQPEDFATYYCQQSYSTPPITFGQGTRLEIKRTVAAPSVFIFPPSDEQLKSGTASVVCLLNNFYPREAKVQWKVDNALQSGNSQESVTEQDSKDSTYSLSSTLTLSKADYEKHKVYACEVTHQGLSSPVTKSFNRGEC
notes: Positive control, expressed in Expi293F by the applicants; also called RGEN5459
B3: antiFITC×CD3-Hab01 (negative control antibody, prepared internally) (bispecific antibody, human IgG4 S228P, kappa, F234A L235A)
heavy: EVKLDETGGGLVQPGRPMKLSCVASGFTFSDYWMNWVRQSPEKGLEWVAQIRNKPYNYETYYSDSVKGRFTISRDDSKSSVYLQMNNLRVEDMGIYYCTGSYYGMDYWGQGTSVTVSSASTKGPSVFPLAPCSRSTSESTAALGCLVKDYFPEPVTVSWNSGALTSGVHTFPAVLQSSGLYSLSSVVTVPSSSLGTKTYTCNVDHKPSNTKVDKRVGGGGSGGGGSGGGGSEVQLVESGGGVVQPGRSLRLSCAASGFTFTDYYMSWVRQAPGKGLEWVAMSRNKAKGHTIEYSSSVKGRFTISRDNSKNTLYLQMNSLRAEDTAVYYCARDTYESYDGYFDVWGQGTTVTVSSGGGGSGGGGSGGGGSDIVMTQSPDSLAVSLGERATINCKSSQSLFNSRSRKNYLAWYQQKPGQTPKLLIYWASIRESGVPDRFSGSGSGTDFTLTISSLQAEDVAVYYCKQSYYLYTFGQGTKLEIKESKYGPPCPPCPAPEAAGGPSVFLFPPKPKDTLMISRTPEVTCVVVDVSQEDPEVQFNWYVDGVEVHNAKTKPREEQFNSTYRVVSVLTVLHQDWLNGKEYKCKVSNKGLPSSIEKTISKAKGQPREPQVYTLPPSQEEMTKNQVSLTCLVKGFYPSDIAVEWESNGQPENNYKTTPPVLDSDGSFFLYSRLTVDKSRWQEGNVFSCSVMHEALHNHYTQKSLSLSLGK
light: DVVMTQTPLSLPVSLGDQASISCRSSQSLVHSNGNTYLRWYLQKPGQSPKVLIYKVSNRFSGVPDRFSGSGSGTDFTLKISRVEAEDLGVYFCSQSTHVPWTFGGGTKLEIKRTVAAPSVFIFPPSDEQLKSGTASVVCLLNNFYPREAKVQWKVDNALQSGNSQESVTEQDSKDSTYSLSSTLTLSKADYEKHKVYACEVTHQGLSSPVTKSFNRGEC
notes: Negative control for the tumor antigens

What follows are binders tested against T1, monkey CD3, on activated monkey PBMC (monkey) (assay: FACS, activated monkey PBMC).
T1 construct: whole, on cells
T1 sequence (Q95LI5 22-198): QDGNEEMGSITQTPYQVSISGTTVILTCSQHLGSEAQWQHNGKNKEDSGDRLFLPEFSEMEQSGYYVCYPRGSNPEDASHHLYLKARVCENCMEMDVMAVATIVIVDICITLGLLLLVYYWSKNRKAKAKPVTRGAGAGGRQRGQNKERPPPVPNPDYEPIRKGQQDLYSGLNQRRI

Binder | EC50
B1 | 5.79 nM and 5.72 nM
B2 | 161 nM
B3 | 15.2 nM and 12.4 nM
